Source: paper PMC10827748

Target: Smac/DIABLO, endogenous (human (endogenous in HEK293F and HEK293T))
Assay: cryo-EM structure; FLAG-BIRC6 purified from HEK293F, cross-linked with 0.01% glutaraldehyde; global map 3.6 Å; a class with endogenous co-purified Smac in the central cavity at 4.7 Å

- stoichiometry N: 2
Substance: Smac/DIABLO, endogenous (natural protein)
